Assay [1] relates to MKN45 re#1 gastric cancer cells. The assay can be described thus: Cell proliferation, CellTiter Glo assay, anti-c-Met antibody resistance induced cell line MKN45 re#1. The format is cell-based. To be noted: 72 hours; for cell proliferation inhibition effect: single treatment: L3-1Y/IgG2 (2 μg/ml) only or linsitinib (10 uM) only, FIG. 7. As for the experimental part: (§1) In particular, in order to obtain anti-c-Met antibody resistant MKN45 gastric cancer cells, MKN45 gastric cancer cells were administered with L3-1Y/IgG2 for at least 3 months by increasing the administration concentration. The amount of L3-1Y/IgG2 administered was increased from 1 μg/ml to 10 μg/ml, until resistance to L3-1Y/IgG2 is induced. The obtained L3-1Y/IgG2 resistant clones were named as MKN45re#1 and MKN45re#24, respectively.
(§2) In order to confirm the acquisition of resistance to L3-1Y/IgG2, the prepared L3-1Y/IgG2 resistant clones (MKN45 re#1 and MKN45 re#24) and MKN45 with no resistance were administered with various concentrations of L3-1Y/IgG2 (see FIG. 9). 72 hours after the antibody administration, the number of living cells was measured through CellTiter Glo assay (Promega, G7573).
(§3) The prepared L3-1Y/IgG2 resistance induced cell lines MKN45re#1 and MKN45re#24 were co-administered with L3-1Y/IgG2 and an IGF-1R inhibitor, to examine changes in cell proliferation of the L3-1Y/IgG2 resistance induced cell lines. Each of the L3-1Y/IgG2 resistant MKN45re#1 and MKN45re#24 cell lines was seeded on a 96-well plate at the amount of 10000 cells/well (medium: RPMI (GIBCO); culture conditions: 5% CO2 and 37° C.), and on the next day, treated with L3-1Y/IgG2 (2 μg/ml) and linsitinib (10 uM) together. 72 hours after the co-treatment, the number of living cells was counted by CellTiter Glo assay (Promega, G7573). For comparison, the same experiments were conducted using a control group with no treatment of L3-1Y/IgG or linsitinib, a group treated with L3-1Y/IgG (2 μg/ml) only, and a group treated with linsitinib (10 uM) only.

Assay [2] concerns MKN45 re#24 gastric cancer cells. The assay can be described thus: Cell proliferation, CellTiter Glo assay, anti-c-Met antibody resistance induced cell line MKN45 re#24. To be noted: 72 hours; for cell proliferation inhibition effect: single treatment: L3-1Y/IgG2 (2 μg/ml) only or linsitinib (10 uM) only, FIG. 8. Type of assay: cell-based. As for the experimental part: as §1, §2, §3
For orientation: In ATP-based viability assays light output follows the ATP content of the culture.

The next assay deals with c-Met (Homo sapiens, UniProt P08581). The assay can be described thus: Specificity of expressed scFv to c-Met. To be noted: after expression. The format is binding. The source says:
For use in constructing an scFv of the huAbF46 antibody from the heavy and light chain variable regions of the huAbF46 antibody, a gene was designed to have the structure of “VH-linker-VL” for each of the heavy and the light chain variable region, with the linker including the amino acid sequence “[…]” (SEQ ID NO: 54). A polynucleotide sequence (SEQ ID NO: 55) encoding the designed scFv of huAbF46 was synthesized in Bioneer and an expression vector for the polynucleotide had the nucleotide sequence of SEQ ID NO: 56.

The next assay has as its system Hs746T cell line. The assay can be described thus: Anticancer effect of anti-c-Met antibody used alone, Hs746T. The format is cell-based.
In a further assay the test system is YCC-11 cell line. Put plainly: Anticancer effect of anti-c-Met antibody used alone, YCC-11. Type of assay: cell-based.
In another assay the test system is SNU-5 cell line. Put plainly: Anticancer effect of anti-c-Met antibody used alone, SNU-5. Type of assay: cell-based.
For a further assay, the system named is SNU-668 cell line. Put plainly: Anticancer effect of anti-c-Met antibody used alone, SNU-668. Type of assay: cell-based.
The subject of the next assay is MKN45 cells. Put plainly: Cell proliferation, non-resistant MKN45 cells. The format is cell-based. As for the experimental part: as §2
[3] abbreviates: various, increasing concentrations of L3-1Y/IgG2, FIG. 9.

The values below come from US10064939B2, “Combination therapy using c-Met inhibitor and IGF-1R inhibitor for c-Met inhibitor resistant cancers” (Samsung Electronics Co., Ltd., priority 2014, dated 2018).

Sequence of c-Met (P08581 25-1390): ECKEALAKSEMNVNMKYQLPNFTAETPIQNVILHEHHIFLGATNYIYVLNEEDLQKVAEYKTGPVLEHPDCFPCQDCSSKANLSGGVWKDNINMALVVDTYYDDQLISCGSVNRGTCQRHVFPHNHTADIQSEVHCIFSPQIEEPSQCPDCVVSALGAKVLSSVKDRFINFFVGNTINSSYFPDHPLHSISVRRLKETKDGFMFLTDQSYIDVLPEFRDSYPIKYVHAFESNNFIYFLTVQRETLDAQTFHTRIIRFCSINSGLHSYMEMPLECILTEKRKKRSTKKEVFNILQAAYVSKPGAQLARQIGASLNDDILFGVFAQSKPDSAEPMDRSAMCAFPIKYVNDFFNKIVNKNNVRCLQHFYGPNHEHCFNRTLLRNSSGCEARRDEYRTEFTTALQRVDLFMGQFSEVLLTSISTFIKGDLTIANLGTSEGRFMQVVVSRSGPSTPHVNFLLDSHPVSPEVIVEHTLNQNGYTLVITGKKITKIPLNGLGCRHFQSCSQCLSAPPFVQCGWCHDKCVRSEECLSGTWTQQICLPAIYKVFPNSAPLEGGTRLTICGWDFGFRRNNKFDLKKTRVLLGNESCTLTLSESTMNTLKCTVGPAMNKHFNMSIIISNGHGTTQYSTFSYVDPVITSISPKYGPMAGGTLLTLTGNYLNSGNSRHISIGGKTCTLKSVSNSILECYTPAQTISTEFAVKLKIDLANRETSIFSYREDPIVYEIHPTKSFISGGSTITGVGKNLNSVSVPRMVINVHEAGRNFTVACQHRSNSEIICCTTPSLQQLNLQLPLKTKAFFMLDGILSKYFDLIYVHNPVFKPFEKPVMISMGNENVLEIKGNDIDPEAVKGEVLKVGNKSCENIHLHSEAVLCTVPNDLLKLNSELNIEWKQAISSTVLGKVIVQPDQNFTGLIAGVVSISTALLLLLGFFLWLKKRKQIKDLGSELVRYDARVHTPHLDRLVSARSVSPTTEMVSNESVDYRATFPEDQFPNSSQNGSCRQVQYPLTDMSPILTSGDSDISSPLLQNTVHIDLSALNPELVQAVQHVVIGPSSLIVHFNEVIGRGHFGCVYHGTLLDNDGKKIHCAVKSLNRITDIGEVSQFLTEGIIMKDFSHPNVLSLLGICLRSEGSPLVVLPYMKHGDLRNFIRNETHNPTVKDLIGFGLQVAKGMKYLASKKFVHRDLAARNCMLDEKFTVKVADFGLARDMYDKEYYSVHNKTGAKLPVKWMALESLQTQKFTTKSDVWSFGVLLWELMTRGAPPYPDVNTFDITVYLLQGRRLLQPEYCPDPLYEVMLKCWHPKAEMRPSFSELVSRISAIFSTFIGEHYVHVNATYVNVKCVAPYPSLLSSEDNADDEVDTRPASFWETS

For the molecule `CC1(O)CC(c2nc(-c3ccc4ccc(-c5ccccc5)nc4c3)c3c(N)nccn23)C1` (stereo not drawn) [linsitinib, 3-[8-Amino-1-(2-phenyl-7-quinolyl)imidazo[1,5-a]pyrazin-3-yl]-1-methyl-cyclobutanol, reference compound], the “cell proliferation inhibition effect” value in assay [1] and in assay [2] was “no cell proliferation inhibition effect” throughout.

B1: scFv of huAbF46: scFv of structure VH-linker-VL from heavy and light chain variable regions of huAbF46 (protein)
scFv: EVQLVESGGGLVQPGGSLRLSCAASGFTFTDYYMSWVRQAPGKGLEWLGFIRNKANGYTTEYSASVKGRFTISRDNSKNTLYLQMNSLRAEDTAVYYCARDNWFAYWGQGTLVTVSSGLGGLGGGGSGGGGSGGSSGVGSDIQMTQSPSSLSASVGDRVTITCKSSQSLLASGNQNNYLAWHQQKPGKAPKMLIIWASTRVSGVPSRFSGSGSGTDFTLTISSLQPEDFATYYCQQSYSAPLTFGQGTKVEIKR
With B1, the “specificity to c-Met” value with c-Met is on record as “exhibit specificity to c-Met”.

B2: L3-1Y/IgG2: anti-c-Met antibody: huAbF46-H4-A1 variable regions, human IgG2 hinge and constant region, human kappa light chain with His36Tyr (antibody)
heavy: EVQLVESGGGLVQPGGSLRLSCAASGFTFTDYYMSWVRQAPGKGLEWLGFIRNKANGYTTEYSASVKGRFTISRDNSKNTLYLQMNSLRAEDTAVYYCARDNWFAYWGQGTLVTVSSASTKGPSVFPLAPCSRSTSESTAALGCLVKDYFPEPVTVSWNSGALTSGVHTFPAVLQSSGLYSLSSVVTVPSSNFGTQTYTCNVDHKPSNTKVDKTVERKCCVECPPCPAPPVAGPSVFLFPPKPKDTLMISRTPEVTCVVVDVSHEDPEVQFNWYVDGVEVHNAKTKPREEQFNSTFRVVSVLTVVHQDWLNGKEYKCKVSNKGLPAPIEKTISKTKGQPREPQVYTLPPSREEMTKNQVSLTCLVKGFYPSDIAVEWESNGQPENNYKTTPPMLDSDGSFFLYSKLTVDKSRWQQGNVFSCSVMHEALHNHYTQKSLSLSPGK
light: DIQMTQSPSSLSASVGDRVTITCKSSQSLLASGNQNNYLAWYQQKPGKAPKMLIIWASTRVSGVPSRFSGSGSGTDFTLTISSLQPEDFATYYCQQSYSRPYTFGQGTKVEIKRTVAAPSVFIFPPSDEQLKSGTASVVCLLNNFYPREAKVQWKVDNALQSGNSQESVTEQDSKDSTYSLSSTLTLSKADYEKHKVYACEVTHQGLSSPVTKSFNRGEC
Regarding B2, the “anticancer effect when used alone” value is “exhibits anticancer effect” in the assay with Hs746T cell line, “does not exhibit anticancer effect” with YCC-11 cell line, “exhibits anticancer effect” with SNU-5 cell line and “does not exhibit anticancer effect” in the assay with SNU-668 cell line. The “cell proliferation inhibition effect” value in assay [1] and in assay [2] was “no cell proliferation inhibition effect” throughout. The “proliferation (number of living cells)” value in assay [1] (setting [3]) and in assay [2] (setting [3]) was “not inhibited” in each case. In addition, the “effect (cancer cell proliferation inhibition effect) when administered alone” value with MKN45 cells is “exhibits its effect”.
